Laboratory results taken from patent US20040205843A1 (NORTH CAROLINA STATE UNIVERSITY, published 2004).
Substitutions are numbered along the chain they refer to. Like-named read-outs stand apart in the source and are kept apart here.

T1: Full length GST-AL1 1-352 (tomato golden mosaic virus (TGMV), UniProt P03567 1-352)
T1 sequence: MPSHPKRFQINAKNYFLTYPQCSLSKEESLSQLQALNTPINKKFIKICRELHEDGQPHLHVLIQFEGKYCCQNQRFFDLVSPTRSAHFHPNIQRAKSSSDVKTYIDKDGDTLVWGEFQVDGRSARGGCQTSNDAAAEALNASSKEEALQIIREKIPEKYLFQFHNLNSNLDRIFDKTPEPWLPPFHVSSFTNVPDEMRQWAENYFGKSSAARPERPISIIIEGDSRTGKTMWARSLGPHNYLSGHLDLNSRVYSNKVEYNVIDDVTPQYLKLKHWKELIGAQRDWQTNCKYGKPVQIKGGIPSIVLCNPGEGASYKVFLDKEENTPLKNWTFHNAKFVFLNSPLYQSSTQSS

T2: GST-AL1(119-352) (tomato golden mosaic virus (TGMV), UniProt P03567 119-352)
T2 construct: also called N-terminal truncation of AL1 fused to GST
T2 sequence: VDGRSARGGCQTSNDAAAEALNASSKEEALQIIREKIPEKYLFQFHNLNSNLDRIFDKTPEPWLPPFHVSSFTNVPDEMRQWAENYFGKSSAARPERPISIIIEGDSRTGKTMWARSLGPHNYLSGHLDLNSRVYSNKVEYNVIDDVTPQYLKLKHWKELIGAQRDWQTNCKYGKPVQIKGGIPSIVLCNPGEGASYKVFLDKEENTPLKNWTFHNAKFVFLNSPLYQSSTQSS

T3: GST-AL1(1-180) (tomato golden mosaic virus (TGMV), UniProt P03567 1-180)
T3 construct: also called C-terminal truncation of AL1 fused to GST
T3 sequence: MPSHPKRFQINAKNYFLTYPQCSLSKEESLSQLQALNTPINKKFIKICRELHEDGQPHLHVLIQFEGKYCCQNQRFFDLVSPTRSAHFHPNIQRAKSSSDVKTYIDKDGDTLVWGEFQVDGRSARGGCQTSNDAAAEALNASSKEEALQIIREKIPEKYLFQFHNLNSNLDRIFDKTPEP

T4: AL1 134-352 (tomato golden mosaic virus (TGMV), UniProt P03567 134-352)
T4 sequence: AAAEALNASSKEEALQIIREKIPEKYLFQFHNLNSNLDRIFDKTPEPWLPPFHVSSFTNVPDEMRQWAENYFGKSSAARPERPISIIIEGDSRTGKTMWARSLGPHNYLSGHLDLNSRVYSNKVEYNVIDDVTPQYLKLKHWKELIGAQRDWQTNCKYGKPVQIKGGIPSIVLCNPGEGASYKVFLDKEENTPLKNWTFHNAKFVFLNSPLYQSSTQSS

T5: TGMV AL1, wild type, full length, untagged (tomato golden mosaic virus (TGMV), UniProt P03567 1-352)
T5 construct: also called Rep; authentic AL1
T5 sequence: T1 sequence

T6: AL1 147-352 (tomato golden mosaic virus (TGMV), UniProt P03567 147-352)
T6 sequence: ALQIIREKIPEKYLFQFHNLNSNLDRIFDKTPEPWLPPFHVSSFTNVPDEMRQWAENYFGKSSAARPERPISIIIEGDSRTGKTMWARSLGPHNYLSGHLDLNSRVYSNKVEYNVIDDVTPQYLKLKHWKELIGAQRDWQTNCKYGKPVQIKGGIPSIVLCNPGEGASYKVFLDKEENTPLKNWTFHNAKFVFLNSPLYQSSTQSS

T7: AL1 119-352 (tomato golden mosaic virus (TGMV), UniProt P03567 119-352)
T7 sequence: T2 sequence

T8: AL1 160-352 (tomato golden mosaic virus (TGMV), UniProt P03567 160-352)
T8 sequence: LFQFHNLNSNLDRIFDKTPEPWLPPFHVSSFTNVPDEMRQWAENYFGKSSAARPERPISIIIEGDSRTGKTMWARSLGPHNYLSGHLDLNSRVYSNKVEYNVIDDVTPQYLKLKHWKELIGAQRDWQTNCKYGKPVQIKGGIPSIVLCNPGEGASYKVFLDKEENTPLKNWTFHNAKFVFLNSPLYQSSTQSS

B1: AL1 1-158 (other)
chain: MPSHPKRFQINAKNYFLTYPQCSLSKEESLSQLQALNTPINKKFIKICRELHEDGQPHLHVLIQFEGKYCCQNQRFFDLVSPTRSAHFHPNIQRAKSSSDVKTYIDKDGDTLVWGEFQVDGRSARGGCQTSNDAAAEALNASSKEEALQIIREKIPEK
B2: AL1 AAA136 (Leu) fused to the Gal4 activation domain (pNSB785) (other)
chain: T1 sequence with A134L, A135L, A136L
B3: AL1 EKY159 (Ala7) fused to the Gal4 activation domain (pNSB760) (other)
chain: T1 sequence with E157A, K158A, Y159A
B4: AL1 KEE146 (Ala5) fused to the Gal4 activation domain (pNSB894) (other)
chain: T1 sequence with K144A, E145A, E146A
B5: AL1 REK154 (Ala6) fused to the Gal4 activation domain (pNSB759) (other)
chain: T1 sequence with R152A, E153A, K154A
B6: AL1 FQ118 (Ala13) fused to the Gal4 activation domain (pNSB872) (other)
chain: T1 sequence with F117A, Q118A
B7: AL1 E--N140 + KEE146 (Ala4+5) fused to the Gal4 activation domain (pNSB757) (other)
chain: T1 sequence with E137A, N140A, K144A, E145A, E146A
B8: AL1 RS-R125 (Ala1) fused to the Gal4 activation domain (pNSB786) (other)
chain: T1 sequence with R122A, S123A, R125A
B9: AL1 EKY159 (Ala7), full length, untagged (other)
chain: T1 sequence with E157A, K158A, Y159A
B10: AL1 Q-HN165 (Ala8) fused to the Gal4 activation domain (pNSB761) (other)
chain: T1 sequence with Q162A, H164A, N165A
B11: AL1 K144 fused to the Gal4 activation domain (pNSB916) (other)
chain: T1 sequence with K144A
B12: GST-AL1 119-180 (other)
chain: VDGRSARGGCQTSNDAAAEALNASSKEEALQIIREKIPEKYLFQFHNLNSNLDRIFDKTPEP
B13: AL1 1-168 (other)
chain: MPSHPKRFQINAKNYFLTYPQCSLSKEESLSQLQALNTPINKKFIKICRELHEDGQPHLHVLIQFEGKYCCQNQRFFDLVSPTRSAHFHPNIQRAKSSSDVKTYIDKDGDTLVWGEFQVDGRSARGGCQTSNDAAAEALNASSKEEALQIIREKIPEKYLFQFHNLNS

What was measured:
[1] = molecular target: T1, Full length GST-AL1 1-352; test: GST co-purification on glutathione-sepharose from insect cells, immunoblot
[2] = molecular target: T9, Maize Rb (amino acids 214-866) fused to the Gal4 DNA binding domain (Zm214C) (maize)
T9 sequence (P04386 1-147): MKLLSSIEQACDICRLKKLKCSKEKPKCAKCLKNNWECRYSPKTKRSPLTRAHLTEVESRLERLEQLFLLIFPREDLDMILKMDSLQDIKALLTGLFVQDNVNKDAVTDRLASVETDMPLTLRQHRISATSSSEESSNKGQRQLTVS

[3] = molecular target: T10, Wild type TGMV AL1 fused to the Gal4 DNA binding domain (pNSB736) (tomato golden mosaic virus (TGMV))
[4] = molecular target: T9, Maize Rb (amino acids 214-866) fused to …; remark: listed apart in the source
[5] = molecular target: T10, Wild type TGMV AL1 fused to the Gal4 …; test: yeast two-hybrid, beta-galactosidase activity
[6] = molecular target: T10, Wild type TGMV AL1 fused to the Gal4 …; remark: listed apart in the source
GST-AL1(119-352) = molecular target: T2, GST-AL1(119-352); test: GST co-purification from insect cells, immunoblot
GST-AL1(1-180) = molecular target: T3, GST-AL1(1-180); test: GST co-purification from insect cells, immunoblot
[7] = molecular target: T1, Full length GST-AL1 1-352; test: GST co-purification from insect cells, immunoblot
GST-AL1 119-180 = molecular target: B12; test: GST co-purification from insect cells, immunoblot
AL1 134-352 = molecular target: T4, AL1 134-352; test: GST co-purification from insect cells, immunoblot
[8] = molecular target: T5, TGMV AL1, wild type, full length, …; test: GST co-purification from insect cells, immunoblot
AL1 147-352 = molecular target: T6, AL1 147-352; test: GST co-purification from insect cells, immunoblot
AL1 119-352 = molecular target: T7, AL1 119-352; test: GST co-purification from insect cells, immunoblot
AL1 160-352 = molecular target: T8, AL1 160-352; test: GST co-purification from insect cells, immunoblot

Binder | Rep/Rb (Rb binding activity relative to wild type) [2] | oligomer. (oligomerization activity relative to wild type) [3] | oligomer. (oligomerization activity relative to wild type) [6] | other results
B1 |  |  |  | binding result [1]: no binding
B2 | 8 relative to wild type (100) | 30 relative to wild type (100) |  | 
B3 | 31 relative to wild type (100) |  |  | 
B4 |  |  |  | RBR1 binding activity, percent of wild type [4]: 16 % of wild type; AL1 interactions, percent of wild type AL1/AL1 mediated activation [5]: 51 % of wild type
B5 | 69 relative to wild type (100) | 57 relative to wild type (100) | 57 relative to wild type (100) | fold reduction of RBR1 binding activity against wild type [4]: 2 fold
B6 | 23 relative to wild type (100) | 95 relative to wild type (100) | 95 relative to wild type (100) | 
B7 | 45 relative to wild type (100) | 88 relative to wild type (100) | 88 relative to wild type (100) | 
B8 | 20 relative to wild type (100) | 27 relative to wild type (100) | 27 relative to wild type (100) | 
B9 |  |  |  | binding result (GST-AL1(119-352)): binds; binding result (GST-AL1(1-180)): no binding; binding result [7]: binds; binding result (GST-AL1 119-180): no binding
B10 |  |  | 102 relative to wild type (100) | 
B11 |  |  |  | RBR1 interactions, percent of wild type levels [4]: 42 % of wild type
B12 |  |  |  | binding result (AL1 134-352): binds; binding result [8]: binds; binding result (AL1 147-352): no binding; binding result (AL1 119-352): binds; binding result (AL1 160-352): no binding
B13 |  |  |  | binding result [1]: no binding
